Measurements published in patent US20140377284A1 (BIOCEROX PRODUCTS B V, published 2014).

Key:
[1] = target: T1, recombinant human CD134:human Fcγ (IgG1) fusion protein (human, UniProt P01857-1 100-330 = IgG part, limits assumed); test: ELISA, plate-bound CD134:Fc 50 ng/well
T1 construct: domain: Fcγ (IgG1); Bought (R&D Systems); also called rhuCD134
Procedure: Ninety six-wells flat-bottom ELISA plates (Corning) were coated with 50 ng/well recombinant human CD134:human Fcγ (IgG1) fusion protein (R&D Systems) in PBS o/n at 4° C. After extensive washing in PBS/0.05% Tween 20, plates were blocked in PBS/0.05% Tween 20/1% BSA fraction V (Roche) for 1 hour at RT. […] After extensive washing in PBS/0.05% Tween 20, binding of antibodies was determined with 1:5000 diluted horseradish peroxidase-conjugated goat anti-mouse (Fcγ specific) antibodies (Jackson ImmunoResearch) or with 1:4000 diluted horseradish peroxidase-conjugated goat anti-human κ-specific antibodies (Southern Biotech) for 1 hour at RT, followed by a ready-to-use solution of TMB substrate (Invitrogen) for colorimetric detection. After adding 1 M H₂SO₄, optical densities were measured at, a wavelength of 450 nm (reference wavelength of 655 nm) using a microplate reader (BioRad).

[2] = target: T2, truncated human CD134 'CRD4' construct (human, UniProt P43489 127-277); test: flow cytometry, transiently transfected 293-F cells, 20.0 µg/mL
T2 construct: also called truncated human CD134 variant that lacked CRD1-CRD2-truncated CRD3 A1-module
T2 sequence: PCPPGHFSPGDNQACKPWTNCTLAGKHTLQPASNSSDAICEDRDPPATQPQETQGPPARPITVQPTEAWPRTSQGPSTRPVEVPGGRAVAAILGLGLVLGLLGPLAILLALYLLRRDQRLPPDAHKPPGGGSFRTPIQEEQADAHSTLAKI
Procedure: (§1) After 48 h, surface human CD134 expression on transfected cells was analyzed by FACS analysis. To this end, transfected cells were harvested and put at 1-2×10⁶ cells/mL in ice-chilled PBS/BSA/NaN₃ supplemented with 50 μg/mL purified human IgG (Sigma; blocking Fey receptors). […] After extensive washing in PBS/BSA/NaN₃, cells were subsequently incubated with 1:200 diluted PE-conjugated goat anti-mouse IgG (Fcγ specific) antibodies (Jackson ImmunoResearch) or with 1:200 diluted PE-conjugated goat anti-human IgG (Fcγ specific) antibodies (Jackson ImmunoResearch) for 30 minutes at 4° C. […] After extensive washing in PBS/BSA/NaN₃, cells were subsequently incubated with 1:200 diluted PE-conjugated goat anti-mouse IgG (Fcγ specific) antibodies (Jackson ImmunoResearch) for 30 minutes at 4° C. After extensive washing in PBS/BSA/NaN₃, cells were fixed in 2% formaldehyde in PBS/BSA/NaN₃ for 30 minutes at 4° C. Binding of antibodies was measured using flow cytometry (FACSCalibur; BD Biosciences).

[3] = target: T3, truncated human CD134 'CRD3' construct (human, UniProt P43489 108-277); test: as above
T3 construct: also called truncated human CD134 variant that lacked CRD1-CRD2
T3 sequence: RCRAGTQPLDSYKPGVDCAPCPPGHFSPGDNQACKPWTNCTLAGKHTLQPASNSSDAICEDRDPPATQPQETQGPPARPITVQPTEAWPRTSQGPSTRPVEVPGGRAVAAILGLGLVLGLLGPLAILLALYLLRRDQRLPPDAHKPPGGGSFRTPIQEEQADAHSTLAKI
Procedure: as §1

[4] = target: T4, human CD134 (full-length, on cells) (human, UniProt P43489 29-277); test: flow cytometry, stable CD134 293-F clone no. 5
T4 construct: also called OX40; TNFRSF4
T4 sequence: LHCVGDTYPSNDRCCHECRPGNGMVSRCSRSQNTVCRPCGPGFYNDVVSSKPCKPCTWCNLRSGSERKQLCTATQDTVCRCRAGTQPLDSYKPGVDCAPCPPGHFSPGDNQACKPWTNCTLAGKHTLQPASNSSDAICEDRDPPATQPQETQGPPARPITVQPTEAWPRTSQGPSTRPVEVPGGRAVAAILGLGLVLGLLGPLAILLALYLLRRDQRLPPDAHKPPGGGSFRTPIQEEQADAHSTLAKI
Procedure: (§2) Full-length human CD134 (SEQ ID NO. 1) was re-cloned in a pcDNA3.1-derived expression plasmid (see Example 11 (d) below). […] After extensive washing in PBS/BSA/NaN₃, cells were subsequently incubated with 1:200 diluted PE-conjugated goat anti-mouse IgG (Fcγ specific) antibodies (Jackson ImmunoResearch) or with 1:200 diluted PE-conjugated goat anti-human IgG (Fcγ specific) antibodies (Jackson ImmunoResearch) for 30 minutes at 4° C. After extensive washing in PBS/BSA/NaN₃, cells were fixed in 2% formaldehyde in PBS/BSA/NaN₃ for 30 minutes at 4° C. Binding of antibodies was measured using flow cytometry (FACSCalibur; BD Biosciences).

[5] = target: T5, human CD134-derived peptide (truncated CRD3 A1-module-CRD4 subdomain A1-module) (human); test: peptide ELISA, 10 ng/well peptide coated
T5 construct: Synthesized by Pepscan Presto; coated on ELISA plates
T5 peptide: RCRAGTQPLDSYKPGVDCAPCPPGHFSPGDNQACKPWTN
Procedure: (§3) After adding 1 M […], optical densities was measured at a wavelength of 450 nm (reference wavelength of 655 nm) using a microplate reader (BioRad).
(§4) Ninety six-wells flat-bottom ELISA plates (Corning) were coated with 10 ng/well human CD134-derived peptide (synthesized by Pepscan Presto, Lelystad, The Netherlands), which corresponded to amino acid sequence of truncated CRD3 A1-module-CRD4 subdomain A1 module (see SEQ ID NO. 38) or with 10 ng/well human fibronectin-derived control peptide (synthesized by Pepscan Presto, Lelystad, The Netherlands), which corresponded to amino acid sequence of extra type III structural domain (see SEQ ID NO. 37) in PBS o/n at 4° C. After extensive washing in PBS/0.05% Tween 20, plates were blocked in PBS/0.05% Tween 20/1% BSA fraction V (Roche) for 1 hour at RT. […] After extensive washing in PBS/0.05% Tween 20, binding of antibodies was determined with 1:5000 diluted horseradish peroxidase-conjugated goat anti-human IgG Fcγ-specific antibodies (Jackson ImmunoResearch) for 1 hour at RT, followed by a ready-to-use solution of TMB substrate (Invitrogen) for colorimetric detection. After adding 1 M H₂SO₄, optical densities was measured at a wavelength of 450 nm (reference wavelength of 655 nm) using a microplate reader (BioRad).

[6] = target: T6, human fibronectin-derived control peptide (extra type III structural domain) (human); test: peptide ELISA
T6 construct: Synthesized by Pepscan Presto; coated on ELISA plates
T6 peptide: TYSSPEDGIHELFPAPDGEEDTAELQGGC
Procedure: as §3, §4

[7] = target: T4, human CD134 (full-length, on cells); test: flow cytometry, stable CD134 293-F clone no. 23
Procedure: as §2

[8] = target: T4, human CD134 (full-length, on cells); test: competition flow cytometry, stable CD134 293-F clone no. 5; competitor biotinylated mouse 12H3 at 700 ng/mL
Procedure: Full-length human CD134 (SEQ ID NO1) was re-cloned in a pcDNA3.1-derived expression plasmid (see Example 11 (c) above). […] After extensive washing in PBS/BSA/NaN₃, cells were fixed in 2% formaldehyde in PBS/BSA/NaN₃ for 30 minutes at 4° C.

[9] = target: T7, truncated human CD134 'truncated (tc) CRD4' construct (human, UniProt P43489 147-277); test: flow cytometry, transiently transfected 293-F cells (parental 12H3: binding completely absent on tcCRD4)
T7 construct: also called truncated CRD4
T7 sequence: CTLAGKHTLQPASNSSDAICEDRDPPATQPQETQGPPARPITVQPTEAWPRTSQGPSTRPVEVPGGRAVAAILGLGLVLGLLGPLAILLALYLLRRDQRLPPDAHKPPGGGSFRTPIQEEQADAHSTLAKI
Procedure: After 48-72 h, surface human CD134 expression on transfected cells was analyzed by FACS analysis. To this end, transfected cells were harvested and put at 1-2×10⁶ cells/mL in ice-chilled PBS/BSA/NaN₃. […] After extensive washing in PBS/BSA/NaN₃, cells were subsequently incubated with 1:200 diluted PE-conjugated goat anti-human IgG (Fcγ specific) antibodies (Jackson ImmunoResearch) for 30 minutes at 4° C. After extensive washing in PBS/BSA/NaN₃, cells were fixed in 2% formaldehyde in PBS/BSA/NaN₃ for 30 minutes at 4° C. Binding of antibodies was measured using flow cytometry (FACSCalibur; BD Biosciences).

[10] = target: T1, recombinant human CD134:human Fcγ …; test: competition ELISA, plate-bound CD134:Fc; competitor biotinylated mouse 12H3 at 20 ng/mL
Procedure: Ninety six-wells flat-bottom ELISA plates (Corning) were coated with 50 ng/well recombinant human CD134:human Fcγ (IgG1) fusion protein (R&D Systems) in PBS o/n at 4° C. After extensive washing in PBS/0.05% Tween 20, plates were blocked in PBS/0.05% Tween 20/1% BSA fraction V (Roche) for 1 hour at RT. […] After adding 1 M H₂SO₄, optical densities were measured at a wavelength of 450 nm (reference wavelength of 655 nm) using a microplate reader (BioRad).

[11] = target: T4, human CD134 (full-length, on cells); test: flow cytometry, OX40L 10.0 µg/mL with anti-polyhistidine antibody
Procedure: PHA-stimulated (at 10 μg/mL for 1 day; see above) human CD134 expressing T lymphocytes were generated. […] After extensive washing in PBS/BSA/NaN₃, cells were fixed in 2% formaldehyde in PBS/BSA/NaN₃ for 30 minutes at 4° C.

[12] = target: T4, human CD134 (full-length, on cells); test: flow cytometry, PHA-stimulated human CD4+ T lymphocytes (data not shown)
Procedure: PHA-stimulated (at 10 μg/mL for 1 day; see above) human CD134 expressing T lymphocytes were generated. […] After extensive washing in PBS/BSA/NaN₃, cells were subsequently incubated with 1:50 diluted FITC-conjugated mouse anti-human IgG4 antibodies (Sigma) for 30 minutes at 4° C. […] After extensive washing in PBS/BSA/NaN₃, cells were fixed in 2% formaldehyde in PBS/BSA/NaN₃ for 30 minutes at 4° C. Binding of antibodies was measured using flow cytometry (FACSCalibur; BD Biosciences).

B1: humanized IgG4κ anti-human CD134 antibody clone 20E5 version 20E5_VL1VH1 (antibody, V domains shown)
VH: QVQLVQSGAEVKKPGASVKVSCKASGYTFTSYVMHWVRQAPGQRLEWMGYINPYNDGTKYNEKFKGRVTITSDTSASTAYMELSSLRSEDTAVYYCANYYGSSLSMDYWGQGTLVTVSS
VL: DIQMTQSPSSLSASVGDRVTITCRASQDISNYLNWYQQKPGKAPKLLIYYTSRLHSGVPSRFSGSGSGTDYTLTISSLQPEDFATYYCQQGNTLPWTFGQGTKVEIKR
notes: Stabilized human IgG4 (Angal et al.)/κ; also called 20E5_VL1H1; VL1H1
[1]
  EC50: ~0.15 µg/mL
[2]
  binding result: binds
[3]
  binding result: binds
[4]
  binding result: binds

B2: chimeric human IgG4κ anti-human CD134 antibody clone 12H3 (antibody, V domains shown)
VH: EVQLQQSGPELVKPGASVKISCKTSGYTFKDYTMHWVKQSHGKSLEWIGGIYPNNGGSTYNQNFKDKATLTVDKSSSTAYMEFRSLTSEDSAVYYCARMGYHGPHLDFDVWGAGTTVTVSP
VL: DIVMTQSHKFMSTSLGDRVSITCKASQDVGAAVAWYQQKPGQSPKLLIYWASTRHTGVPDRFTGGGSGTDFTLTISNVQSEDLTDYFCQQYINYPLTFGGGTKLEIKR
notes: Murine V-regions linked to human IgG4 and human kappa constant regions; also called chimeric 12H3 (human IgG4/κ)
[5]
  binding result: binds
[1]
  EC50: ~0.1 µg/mL
[6]
  binding result: no binding (tested: 50.0 µg/mL)
[7]
  EC50: > 0.2 µg/mL
[8]
  IC50: ~3.5 µg/mL
[9]
  binding result: no binding (tested: 20.0 µg/mL)
[10]
  IC50: ~0.75 µg/mL

B3: polyhistidine-tagged recombinant human OX40 ligand (ligand, UniProt P23510 51-183, looked up)
chain: QVSHRYPRIQSIKVQFTEYKKEKGFILTSQKEDEIMKVQNNSVIINCDGFYLISLKGYFSQEVNISLHYQKDEEPLFQLKKVRSVNSLMVASLTYKDKVYLNVTTDNTSLDDFHVNGGELILIHQNPGEFCVL
notes: Bought; used together with mouse anti-polyhistidine antibody (clone AD1.1.10); also called CD252; not shown: polyhistidine tag
[11]
  binding result: binds

B4: chimeric human IgG4κ anti-human CD134 antibody clone 20E5 (antibody, V domains shown)
VH: EVQLQQSGPELVKPGASVKMSCKASGYTFTSYVMHWVKQKPGQGLEWIGYINPYNDGTKYNEKFKGKATLTSDKSSSTAYMELSSLTSEDSAVYYCANYYGSSLSMDYWGQGTSVTVSS
VL: DIQMTQTTSSLSASLGDRVTISCRASQDISNYLNWYQQKPDGTVKLLIYYTSRLHSGVPSRFSGSGSGTDYSLTISNLEQEDIATYFCQQGNTLPWTFGGGTKLEIKR
notes: Murine V-regions linked to human IgG4 and human kappa constant regions
[1]
  EC50: ~0.1 µg/mL
[12]
  EC50: ~1 µg/mL

B5: chimeric human IgG1κ anti-human CD134 monoclonal antibody clone 12H3 (antibody, V domains shown)
VH: EVQLQQSGPELVKPGASVKISCKTSGYTFKDYTMHWVKQSHGKSLEWIGGIYPNNGGSTYNQNFKDKATLTVDKSSSTAYMEFRSLTSEDSAVYYCARMGYHGPHLDFDVWGAGTTVTVSP
VL: DIVMTQSHKFMSTSLGDRVSITCKASQDVGAAVAWYQQKPGQSPKLLIYWASTRHTGVPDRFTGGGSGTDFTLTISNVQSEDLTDYFCQQYINYPLTFGGGTKLEIKR
notes: Human IgG1/kappa constant regions
[9]
  binding result: no binding (tested: 20.0 µg/mL)
